Data taken from the supplement of paper PMC9112550, “Optimization of the antimicrobial peptide Bac7 by deep mutational scanning” (BMC Biology, 2022).

These sequences were tested on Escherichia coli TOP10 (assay: shrunken log2 fold change of peptide-encoding DNA abundance (4.5 h post-induction vs induction); higher = less antimicrobial activity (less host growth inhibition)). Conditions: time post-induction: 4.5 h; library: site-saturation at positions 5, 18, 19, 20.
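Further: peptides expressed intracellularly from a pBAD plasmid library in pooled LB shake-flask culture, induced with 0.3% L-arabinose, DNA abundance read by NGS, three biological replicates, DESeq2 with apeglm shrinkage.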

First: RRIRMRPPRLPRPRPRPMDSPRP
Second: RRIRARPPRLPRPRPRPDWLPRP
The “shrunken log2 fold change” value of the first is lower: 0.0342 for the first, 0.432 for the second.

RRIRGRPPRLPRPRPRPLIRPRP and RRIRWRPPRLPRPRPRPKIEPRP are within 0.2 log units of each other in “shrunken log2 fold change” value: 0.0808 for the first, -0.0252 for the second.

Going from RRIRSRPPRLPRPRPRPLWYPRP to RRIRDRPPRLPRPRPRPLFDPRP, the “shrunken log2 fold change” value rises from -0.327 to 0.393.

Going from RRIRYRPPRLPRPRPRPNCFPRP to RRIRDRPPRLPRPRPRPVVCPRP, the “shrunken log2 fold change” value rises from -0.43 to 0.26.

First: RRIRSRPPRLPRPRPRPLEIPRP
Second: RRIRYRPPRLPRPRPRPKGWPRP
The “shrunken log2 fold change” value of the first is lower: 0.11 for the first, 0.465 for the second.

Compared with RRIRDRPPRLPRPRPRPANPPRP, RRIRSRPPRLPRPRPRPGKGPRP is lower in “shrunken log2 fold change” value: 0.234 for the first, -0.0961 for the second.

Going from RRIRSRPPRLPRPRPRPVAPPRP to RRIRFRPPRLPRPRPRPCNQPRP, the “shrunken log2 fold change” value falls from 0.397 to -0.649.

Compared with RRIRSRPPRLPRPRPRPFHAPRP, RRIRPRPPRLPRPRPRPPGLPRP is higher in “shrunken log2 fold change” value: 0.042 for the first, 0.268 for the second.

First: RRIRIRPPRLPRPRPRPYMCPRP
Second: RRIRQRPPRLPRPRPRPTQQPRP
The “shrunken log2 fold change” value of the first is lower: -0.318 for the first, 0.0196 for the second.

RRIRQRPPRLPRPRPRPNGWPRP and RRIRGRPPRLPRPRPRPHFMPRP are within 0.2 log units of each other in “shrunken log2 fold change” value: -0.0145 for the first, 0.152 for the second.

RRIRLRPPRLPRPRPRPKRMPRP and RRIRSRPPRLPRPRPRPCCRPRP are within 0.2 log units of each other in “shrunken log2 fold change” value: -0.029 for the first, -0.0822 for the second.

Compared with RRIRRRPPRLPRPRPRPSQDPRP, RRIRNRPPRLPRPRPRPVTIPRP is lower in “shrunken log2 fold change” value: 0.112 for the first, -0.463 for the second.

RRIRVRPPRLPRPRPRPTKYPRP and RRIRPRPPRLPRPRPRPHNDPRP are within 0.2 log units of each other in “shrunken log2 fold change” value: -0.523 for the first, -0.566 for the second.

First: RRIRKRPPRLPRPRPRPSDIPRP
Second: RRIRKRPPRLPRPRPRPMQGPRP
The “shrunken log2 fold change” value of the first is higher: 1.14 for the first, -0.00992 for the second.

First: RRIRHRPPRLPRPRPRPHWMPRP
Second: RRIRVRPPRLPRPRPRPQHDPRP
The “shrunken log2 fold change” value of the first is lower: -0.785 for the first, -0.0871 for the second.

Going from RRIRVRPPRLPRPRPRPQPVPRP to RRIRGRPPRLPRPRPRPAKPPRP, the “shrunken log2 fold change” value rises from -0.195 to 0.82.

RRIRLRPPRLPRPRPRPQGTPRP and RRIRQRPPRLPRPRPRPSTEPRP are within 0.2 log units of each other in “shrunken log2 fold change” value: 0.0413 for the first, -0.0926 for the second.

RRIRFRPPRLPRPRPRPGHDPRP and RRIRGRPPRLPRPRPRPNCRPRP are within 0.2 log units of each other in “shrunken log2 fold change” value: 0.062 for the first, 0.0979 for the second.

Going from RRIRYRPPRLPRPRPRPHRWPRP to RRIRERPPRLPRPRPRPYCRPRP, the “shrunken log2 fold change” value falls from -0.0477 to -0.394.

RRIRWRPPRLPRPRPRPLKEPRP and RRIRPRPPRLPRPRPRPNAYPRP are within 0.2 log units of each other in “shrunken log2 fold change” value: -0.0713 for the first, -0.0709 for the second.

Going from RRIRPRPPRLPRPRPRPNNAPRP to RRIRFRPPRLPRPRPRPPINPRP, the “shrunken log2 fold change” value falls from -0.19 to -0.406.

RRIRCRPPRLPRPRPRPQHTPRP and RRIRMRPPRLPRPRPRPHYVPRP are within 0.2 log units of each other in “shrunken log2 fold change” value: -0.0159 for the first, -0.0815 for the second.

Going from RRIRTRPPRLPRPRPRPTLSPRP to RRIRDRPPRLPRPRPRPSQYPRP, the “shrunken log2 fold change” value falls from 0.106 to -0.697.

Going from RRIRPRPPRLPRPRPRPKDFPRP to RRIRGRPPRLPRPRPRPYASPRP, the “shrunken log2 fold change” value rises from -0.141 to 0.143.

First: RRIRDRPPRLPRPRPRPNDSPRP
Second: RRIRWRPPRLPRPRPRPWCEPRP
The “shrunken log2 fold change” value of the first is higher: -0.134 for the first, -0.372 for the second.

RRIRFRPPRLPRPRPRPDFCPRP and RRIRWRPPRLPRPRPRPVDEPRP are within 0.2 log units of each other in “shrunken log2 fold change” value: -0.0235 for the first, 0.0343 for the second.

Going from RRIRERPPRLPRPRPRPLAQPRP to RRIRMRPPRLPRPRPRPLVAPRP, the “shrunken log2 fold change” value rises from 0.21 to 1.16.

First: RRIRDRPPRLPRPRPRPGKYPRP
Second: RRIRRRPPRLPRPRPRPWISPRP
The “shrunken log2 fold change” value of the first is higher: -0.124 for the first, -0.382 for the second.

RRIRRRPPRLPRPRPRPIESPRP and RRIRERPPRLPRPRPRPVCEPRP are within 0.2 log units of each other in “shrunken log2 fold change” value: 0.0332 for the first, 0.162 for the second.

RRIRYRPPRLPRPRPRPPIGPRP and RRIRERPPRLPRPRPRPMYEPRP are within 0.2 log units of each other in “shrunken log2 fold change” value: -0.0423 for the first, -0.00246 for the second.

RRIRARPPRLPRPRPRPWSMPRP and RRIRHRPPRLPRPRPRPALDPRP are within 0.2 log units of each other in “shrunken log2 fold change” value: -0.198 for the first, -0.103 for the second.

First: RRIRDRPPRLPRPRPRPKWVPRP
Second: RRIRERPPRLPRPRPRPSNVPRP
The “shrunken log2 fold change” value of the first is higher: 0.538 for the first, -0.441 for the second.

RRIRCRPPRLPRPRPRPIESPRP and RRIRARPPRLPRPRPRPSGMPRP are within 0.2 log units of each other in “shrunken log2 fold change” value: 0.204 for the first, 0.197 for the second.

RRIRSRPPRLPRPRPRPTTRPRP and RRIRPRPPRLPRPRPRPLSRPRP are within 0.2 log units of each other in “shrunken log2 fold change” value: 0.222 for the first, 0.0978 for the second.

First: RRIRPRPPRLPRPRPRPIIEPRP
Second: RRIRMRPPRLPRPRPRPKSDPRP
The “shrunken log2 fold change” value of the first is lower: -0.138 for the first, 0.466 for the second.

First: RRIRARPPRLPRPRPRPMLWPRP
Second: RRIRRRPPRLPRPRPRPVYDPRP
The “shrunken log2 fold change” value of the first is higher: 0.183 for the first, -0.331 for the second.

First: RRIRCRPPRLPRPRPRPLAHPRP
Second: RRIRARPPRLPRPRPRPTPIPRP
The “shrunken log2 fold change” value of the first is lower: -0.0666 for the first, 0.747 for the second.

Going from RRIRTRPPRLPRPRPRPSKTPRP to RRIRQRPPRLPRPRPRPPSAPRP, the “shrunken log2 fold change” value rises from 0.0543 to 0.5.

RRIRTRPPRLPRPRPRPLFCPRP and RRIRNRPPRLPRPRPRPFRPPRP are within 0.2 log units of each other in “shrunken log2 fold change” value: -0.287 for the first, -0.215 for the second.

Going from RRIRFRPPRLPRPRPRPFQPPRP to RRIRKRPPRLPRPRPRPIFYPRP, the “shrunken log2 fold change” value rises from -0.334 to -0.0532.

Going from RRIRYRPPRLPRPRPRPYPHPRP to RRIRKRPPRLPRPRPRPKTRPRP, the “shrunken log2 fold change” value rises from -0.112 to 0.444.

Going from RRIRTRPPRLPRPRPRPQRAPRP to RRIRHRPPRLPRPRPRPGPCPRP, the “shrunken log2 fold change” value falls from 0.265 to -0.254.

First: RRIRDRPPRLPRPRPRPFMTPRP
Second: RRIRLRPPRLPRPRPRPGCVPRP
The “shrunken log2 fold change” value of the first is lower: -0.185 for the first, 0.182 for the second.

Compared with RRIRVRPPRLPRPRPRPMCSPRP, RRIRERPPRLPRPRPRPLKAPRP is higher in “shrunken log2 fold change” value: -0.237 for the first, 0.225 for the second.

First: RRIRTRPPRLPRPRPRPPDHPRP
Second: RRIRNRPPRLPRPRPRPEFTPRP
The “shrunken log2 fold change” value of the first is higher: 0.112 for the first, -0.161 for the second.

RRIRCRPPRLPRPRPRPFREPRP and RRIRIRPPRLPRPRPRPHQLPRP are within 0.2 log units of each other in “shrunken log2 fold change” value: -0.386 for the first, -0.52 for the second.

RRIRRRPPRLPRPRPRPKYVPRP and RRIRQRPPRLPRPRPRPLGGPRP are within 0.2 log units of each other in “shrunken log2 fold change” value: -0.194 for the first, -0.12 for the second.

RRIRQRPPRLPRPRPRPHHRPRP and RRIRMRPPRLPRPRPRPQFCPRP are within 0.2 log units of each other in “shrunken log2 fold change” value: 0.104 for the first, 0.0736 for the second.

RRIRCRPPRLPRPRPRPFQRPRP and RRIRPRPPRLPRPRPRPHSIPRP are the same in “shrunken log2 fold change” value: -0.418 for the first, -0.418 for the second.

Going from RRIRCRPPRLPRPRPRPIIGPRP to RRIRDRPPRLPRPRPRPGDFPRP, the “shrunken log2 fold change” value rises from -0.304 to -0.017.

Compared with RRIRARPPRLPRPRPRPPMEPRP, RRIRWRPPRLPRPRPRPWPCPRP is lower in “shrunken log2 fold change” value: 0.587 for the first, 0.0272 for the second.

First: RRIRWRPPRLPRPRPRPSFWPRP
Second: RRIRKRPPRLPRPRPRPTGDPRP
The “shrunken log2 fold change” value of the first is lower: 0.372 for the first, 0.727 for the second.

RRIRVRPPRLPRPRPRPGTLPRP and RRIRNRPPRLPRPRPRPNFSPRP are within 0.2 log units of each other in “shrunken log2 fold change” value: -0.174 for the first, -0.0166 for the second.

RRIRPRPPRLPRPRPRPWHVPRP and RRIRIRPPRLPRPRPRPEMAPRP are within 0.2 log units of each other in “shrunken log2 fold change” value: -0.0812 for the first, -0.061 for the second.

First: RRIRERPPRLPRPRPRPNSPPRP
Second: RRIRERPPRLPRPRPRPHFIPRP
The “shrunken log2 fold change” value of the first is higher: -0.00647 for the first, -0.573 for the second.

First: RRIRMRPPRLPRPRPRPDIEPRP
Second: RRIRPRPPRLPRPRPRPQWPPRP
The “shrunken log2 fold change” value of the first is higher: 1.3 for the first, -0.0484 for the second.

RRIRKRPPRLPRPRPRPDEDPRP and RRIRQRPPRLPRPRPRPDDFPRP are within 0.2 log units of each other in “shrunken log2 fold change” value: -0.00112 for the first, -0.0929 for the second.

Compared with RRIRARPPRLPRPRPRPFPAPRP, RRIRDRPPRLPRPRPRPTKHPRP is lower in “shrunken log2 fold change” value: 0.439 for the first, -0.0699 for the second.

First: RRIRLRPPRLPRPRPRPPPKPRP
Second: RRIRNRPPRLPRPRPRPPPVPRP
The “shrunken log2 fold change” value of the first is higher: 1.8 for the first, 0.933 for the second.

RRIRYRPPRLPRPRPRPAKDPRP and RRIRTRPPRLPRPRPRPSGVPRP are within 0.2 log units of each other in “shrunken log2 fold change” value: -0.151 for the first, 0.00112 for the second.

First: RRIRHRPPRLPRPRPRPLSQPRP
Second: RRIRFRPPRLPRPRPRPVHRPRP
The “shrunken log2 fold change” value of the first is higher: -0.0443 for the first, -0.261 for the second.

RRIRQRPPRLPRPRPRPWVSPRP and RRIRLRPPRLPRPRPRPEYFPRP are within 0.2 log units of each other in “shrunken log2 fold change” value: -0.0689 for the first, -0.0957 for the second.

RRIRTRPPRLPRPRPRPFEKPRP was tested, and the “shrunken log2 fold change” value was -0.0979.
